Results published in patent US20240287479A1, “GLYCOSYLTRANSFERASE MUTANT, AND METHOD FOR CATALYTIC SYNTHESIS OF REBAUDIOSIDE M USING GLYCOSYLTRANSFERASE MUTANT” (XINGHUA GL STEVIA CO., LTD, priority 2021, published 2024).
Residue numbers refer to the chain shown, from its start. Numbers in names are those of the source.

Legend:
Type in all cases: biochemical
[1] = Kinetic parameters of purified glycosyltransferases for rebaudioside E; conditions: for Kcat / Km: substrate RebE, purified enzyme
Description: (§1) Activities of glycosyltransferase mutants and a WT glycosyltransferase were determined. A 3 mL catalytic reaction system was prepared from the following components: 1.2 mM rebaudioside E, 2 mM UDPG, 3 mM MgCl2, crude enzyme: 1 mg, and 100 mM potassium phosphate buffer with a pH of 7.2: the balance. A catalytic reaction was conducted on a shaker at 37° C. and 200 rpm, where a sample was collected at 0 min and 30 min. Sample treatment: 500 μL of a sample solution was pipetted and added to an EP tube; the EP tube was placed in boiling water at 95° C. for 15 min to stop a reaction, and then centrifuged in a centrifuge at 12,000 rpm for 1 min; and a resulting supernatant was collected and added to a new EP tube, filtered through an organic filter membrane (0.45 μm), and stored in a liquid-phase sample bottle for high-performance liquid chromatography (HPLC) analysis. Definition of an enzyme activity (U): an enzyme amount required for producing 1 μmol of a product within 1 min is defined as 1 enzyme activity unit.
(§2) A final concentration of rebaudioside E was set to 10 μM to 2,000 μM or a final concentration of rebaudioside D was set to 50 μM to 2,000 μM. Rebaudioside E or rebaudioside D solutions of different concentrations each were mixed with an appropriate amount of each of the purified WT UGT76G1 and the mutant S195Q, and an enzyme activity was determined according to the enzyme activity assay method described above. A Michaelis Menten equation was used to calculate Kn, Vmax, Keat, and Keat/Km of the purified WT glycosyltransferase and the glycosyltransferase mutant.

[2] = Crude enzyme activity of glycosyltransferase mutants and WT (HPLC); conditions: 1.2 mM rebaudioside E, 2 mM UDPG, crude enzyme 1 mg, 37° C., 30 min
Description: as §1
The four mutant strains S195Q-StSUS1, L200Y-StSUS1, T284S-StSUS1, and S285W-StSUS1 screened out in the above conversion experiment were used to produce glycosyltransferase mutants, and the glycosyltransferase mutants and the WT glycosyltransferase UGT76G1 were tested for activities. […] Thus, the optimal mutant strain S195Q-StSUS1 was screened out.

[3] = Kinetic parameters of purified glycosyltransferases for rebaudioside D; conditions: for Kcat / Km: substrate RebD, purified enzyme
Description: as §1, §2

[4] = Preliminary screening: conversion of RebE by crude recombinases; conditions: 40° C., 12 h; for catalytic activity / conversion rate for RebE (in words): RebE 10 g/L
Description: (§3) Recombinases were prepared with the mutant strains G87D-StSUS1, S147D-StSUS1, S147N-StSUS1, S195Q-StSUS1, L200Y-StSUS1, T284S-StSUS1, S285W-StSUS1, and G378P-StSUS1 and the WT strain UGT76G1-StSUS1, and then used to convert RebE or RebD to preliminarily screen out relatively-preferred mutants.
The conversion of RebE adopted a 3 mL reaction system including. RebE as a substrate: 10 g/L, sucrose: 30 g/L, crude enzyme: 5 mg/mL, and 100 mM potassium phosphate buffer (pH 7.2): the balance. A RebE conversion reaction was conducted on a shaker at 40° C. and 200 rpm for 12 h, and corresponding conversion rates were shown in FIG. 1.

[5] = Preliminary screening: conversion of RebD by crude recombinases; conditions: 40° C.; for RebD substrate conversion rate relative to UGT76G1-StSUS1: 20 h
Description: as §3
The conversion of RebD adopted a 3 mL reaction system including: RebD as a substrate: 1 g/L, sucrose: 3 g/L, crude enzyme: 5 mg/mL, and 100 mM potassium phosphate buffer (pH 7.2): the balance. A RebD conversion reaction was conducted on a shaker at 40° C. and 200 rpm for 6 h and 20 h, and corresponding conversion rates were shown in FIG. 2.

B1: S195Q: UGT76G1 (SEQ ID NO: 1) mutant, position 195 serine to glutamine (protein)
chain: MENKTETTVRRRRRIILFPVPFQGHINPILQLANVLYSKGFSITIFHTNFNKPKTSNYPHFTFRFILDNDPQDERISNLPTHGPLAGMRIPIINEHGADELRRELELLMLASEEDEEVSCLITDALWYFAQSVADSLNLRRLVLMTSSLFNFHAHVSLPQFDELGYLDPDDKTRLEEQASGFPMLKVKDIKSAYQNWQILKEILGKMIKQTKASSGVIWNSFKELEESELETVIREIPAPSFLIPLPKHLTASSSSLLDHDRTVFQWLDQQPPSSVLYVSFGSTSEVDEKDFLEIARGLVDSKQSFLWVVRPGFVKGSTWVEPLPDGFLGERGRIVKWVPQQEVLAHGAIGAFWTHSGWNSTLESVCEGVPMIFSDFGLDQPLNARYMSDVLKVGVYLENGWERGEIANAIRRVMVDEEGEYIRQNARVLKQKADVSLMKGGSSYESLESLVSYISSL
modifications: The sequence is synthetized.
With B1 the “Kcat” value [1] was 1.48 ± 0.01 s⁻¹, the Km [1] was 56.3 ± 2.02 µM and the “improvement of catalytic efficiency compared with the WT glycosyltransferase” value ([1]; substrate rebaudioside E) was 2.2 times. The “enzyme activity (in words)” value [2] was “highest enzyme activity”, the “enzyme activity relative to WT glycosyltransferase UGT76G1” value [2] was 1.3 times and the “Kcat” value [3] was 0.25 ± 0.004 s⁻¹. The Km [3] was 214 ± 14.5 µM, the “improvement of affinity compared with the WT glycosyltransferase” value ([3]; substrate rebaudioside D) was 2.2 times and the “improvement of catalytic efficiency compared with the WT glycosyltransferase” value ([3]; substrate rebaudioside D) was 2.8 times.

B2: S195Q-StSUS1: recombinase (crude enzyme) from E. coli BL21 (DE3) co-expressing mutant S195Q and sucrose synthase StSUS1 (protein)
chain: B1 chain
For B2, the “RebE conversion rate relative to UGT76G1-StSUS1” value [4] was 1.1 times and the “RebD substrate conversion rate relative to UGT76G1-StSUS1” value [5] was 1.3 times.

B3: T284S-StSUS1: recombinase (crude enzyme) from E. coli BL21 (DE3) co-expressing mutant T284S and sucrose synthase StSUS1 (protein)
chain: B1 chain with Q195S, T284S
With B3 the “RebE conversion rate relative to UGT76G1-StSUS1” value [4] was 1.1 times.

B4: S147D-StSUS1: recombinase (crude enzyme) from E. coli BL21 (DE3) co-expressing mutant S147D and sucrose synthase StSUS1 (protein)
chain: B1 chain with S147D, Q195S
For B4, the “catalytic activity / conversion rate for RebE (in words)” value (shortened to “catalytic activity / conversion rate”) [4] was “low conversion rate”.

B5: S285W-StSUS1: recombinase (crude enzyme) from E. coli BL21 (DE3) co-expressing mutant S285W and sucrose synthase StSUS1 (protein)
chain: B1 chain with Q195S, S285W
With B5 the “RebE conversion rate relative to UGT76G1-StSUS1” value [4] was 1.1 times.

B6: S147N-StSUS1: recombinase (crude enzyme) from E. coli BL21 (DE3) co-expressing mutant S147N and sucrose synthase StSUS1 (protein)
chain: B1 chain with S147N, Q195S
For B6, the “catalytic activity / conversion rate” value [4] was “basically no catalytic activity”.

B7: L200Y-StSUS1: recombinase (crude enzyme) from E. coli BL21 (DE3) co-expressing mutant L200Y and sucrose synthase StSUS1 (protein)
chain: B1 chain with Q195S, L200Y
With B7 the “RebE conversion rate relative to UGT76G1-StSUS1” value [4] was 1.1 times, the “catalytic effect on RebD (in words)” value ([5]; 6 h) was “optimal catalytic effect” and the “RebD substrate conversion rate relative to UGT76G1-StSUS1” value [5] was 1.3 times.

B8: L200Y: UGT76G1 (SEQ ID NO: 1) mutant, position 200 leucine to tyrosine (protein)
chain: B1 chain with Q195S, L200Y
modifications: The sequence is synthetized.
In the case of B8, the “enzyme activity (in words)” value [2] is reported as “low enzyme activity”.

B9: G378P-StSUS1: recombinase (crude enzyme) from E. coli BL21 (DE3) co-expressing mutant G378P and sucrose synthase StSUS1 (protein)
chain: B1 chain with Q195S, G378P
In the case of B9, the “catalytic activity / conversion rate” value [4] is reported as “basically no catalytic activity”.

B10: UGT76G1: wild-type Stevia rebaudiana-derived glycosyltransferase, amino acid sequence SEQ ID NO: 1 (protein)
chain: B1 chain with Q195S
modifications: The sequence is synthetized.
For B10, the “Kcat” value [1] was 2.00 ± 0.03 s⁻¹, the Km [1] was 170 ± 12.6 µM and the “Kcat” value [3] was 0.20 ± 0.005 s⁻¹. It also gave a Km [3] of 478 ± 33 µM.
